Data set [1] concerns the target EBV NEC215-N31S_(BFLF2)/F267W_(BFLF2)-His8 (Epstein-Barr virus (strain B95-8)) (UniProt P03185).
Data set [2] has as its target EBV NEC215-N31S_(BFLF2)/L262F_(BFLF2)-His8 (Epstein-Barr virus (strain B95-8)) (UniProt P03185).
Data set [3] addresses EBV NEC215-N121Q_(BFRF1)/N31S_(BFLF2)-His8 (Epstein-Barr virus (strain B95-8)) (UniProt P03185).
Data set [4] deals with EBV NEC215-Q43A_(BFRF1)/N31S_(BFLF2)-His8 (Epstein-Barr virus (strain B95-8)) (UniProt P03185).
Data set [5] concerns the molecule itself. The data set is described as follows: crystal structure; EBV NEC195Δ65; hanging drops at 20°C, protein in 20 mM HEPES pH 8.0, 100 mM NaCl, 0.5 mM TCEP over 25% PEG 3350, 0.1 M Tris-HCl pH 8.5, 0.2 M Li2SO4; space group P4(3)2(1)2, five heterodimers in the asymmetric unit; 3.97 Å.

As to “EBV NEC215-N31S_(BFLF2)/F267W_(BFLF2)-His8 (from UniProt P03185 1-215; P0CK47 1-318) (complex)”, the in-vitro GUV budding assay (intraluminal vesicles, 1.5 uM NEC, Ni-chelating lipids), against WT EBV NEC215-N31S (BFLF2)-His8 (% of the WT EBV NEC) in data set [1] was below 25.

In data set [2], “EBV NEC215-N31S_(BFLF2)/L262F_(BFLF2)-His8 (from UniProt P03185 1-215; P0CK47 1-318) (complex)” showed an in-vitro GUV budding assay (intraluminal vesicles, 1.5 uM NEC, Ni-chelating lipids), against WT EBV NEC215-N31S (BFLF2)-His8 (% of the WT EBV NEC) below 25.

With “EBV NEC215-N121Q_(BFRF1)/N31S_(BFLF2)-His8 (from UniProt P03185 1-215; P0CK47 1-318) (complex)”, the in-vitro GUV budding assay (intraluminal vesicles, 1.5 uM NEC, Ni-chelating lipids), against WT EBV NEC215-N31S (BFLF2)-His8 in data set [3] turned out to be 2 fold.

The molecule “EBV NEC215-Q43A_(BFRF1)/N31S_(BFLF2)-His8 (from UniProt P03185 1-215; P0CK47 1-318) (complex)” showed an in-vitro GUV budding assay (intraluminal vesicles, 1.5 uM NEC, Ni-chelating lipids), against WT EBV NEC215-N31S (BFLF2)-His8 (% of the WT EBV NEC) in data set [4] below 25.

B1: EBV NEC195Δ65 (complex)
chain 1: MASPEERLLDELNNVIVSFLCDSGSLEVERCSGAHVFSRGSSQPLCTVKLRHGQIYHLEFVYKFLAFKLKNCNYPSSPVFVISNNGLATTLRCFLHEPSGLRSGQSGPCLGLSTDVDLPKNSIIMLGQDDFIKFKSPLVFPAELDLLKSMVVCRAYITEHRTTMQFLVFQAANAQKASRVMDMISDMSQQLSRSG
chain 2: RSICSRHTRHGVDRSHFSLRDFFRGISANFELGKDFLREMNTPIHVSEAVFLPLSLCTLSPGRCLRLSPFGHSLTLGSHCEICINRSQVHVPQEFSSTQLSFFNNVHKIIPNKTFYVSLLSSSPSAVKAGLSQPSLLYAYLVTGHFCGTICPIFSTNGKGRLIMHLLLQGTSLHIPETCLKLLCENIGPTYELAVDLVGDAFCIKVSPRDTVYEKAVNVDEDAIYEAIKDLECGDELRLQIINYTQLILENKQ
notes: BFRF1 of Epstein-Barr virus strain B95-8, residues 1-195; BFLF2 of Epstein-Barr virus strain B95-8, residues 66-318; Heterodimer of m1 and m2; used for the NEC/NEC dimers seen in the crystal; also called nuclear egress complex; NEC1-5 (copies in the crystal); source: E. coli Rosetta (DE3), co-expressed, purified (Ni-NTA, glutathione Sepharose, S75 size exclusion); not shown: GST, …
Take B1: the binding result in data set [5] is listed as “binds”.

For the origin of these results see PMC9299292, “The nuclear egress complex of Epstein-Barr virus buds membranes through an oligomerization-driven mechanism” (PLoS Pathogens, 2022).
